Data on one substance can be found in publication PMC8426278.

For this assay, the target named is GST-G1NC_(long) (GST-fused complete cytosolic domain of rat GIRK1, a.a. 1-84, 184-501) (rat) (UniProt P63251). Kind of assay: pull-down.

“Gβ1(I80N)γ2 (bovine Gβ1 I80N co-translated with bovine Gγ2) (from UniProt P62871 1-340; P63212 1-71) (complex)” had a binding as % of wt Gβγ of 89.6%.
